Paper PMC3608606, “Arabidopsis DEAD-Box RNA Helicase UAP56 Interacts with Both RNA and DNA as well as with mRNA Export Factors”

Tests used:
UAP56 [1] = target: T1, UAP56 (Arabidopsis thaliana, UniProt Q56XG6 1-427); assay: MST; MST: 50 nM labelled oligonucleotide in EMSA buffer (composition cited, ref 44), 28 C, Hill fit; EMSA: 32P probe, PAGE, same cited protocol; salt and pH not given; conditions: protein: recombinant; tags: 6xHis (pQE9); label: fluorescent; blunt
T1 sequence: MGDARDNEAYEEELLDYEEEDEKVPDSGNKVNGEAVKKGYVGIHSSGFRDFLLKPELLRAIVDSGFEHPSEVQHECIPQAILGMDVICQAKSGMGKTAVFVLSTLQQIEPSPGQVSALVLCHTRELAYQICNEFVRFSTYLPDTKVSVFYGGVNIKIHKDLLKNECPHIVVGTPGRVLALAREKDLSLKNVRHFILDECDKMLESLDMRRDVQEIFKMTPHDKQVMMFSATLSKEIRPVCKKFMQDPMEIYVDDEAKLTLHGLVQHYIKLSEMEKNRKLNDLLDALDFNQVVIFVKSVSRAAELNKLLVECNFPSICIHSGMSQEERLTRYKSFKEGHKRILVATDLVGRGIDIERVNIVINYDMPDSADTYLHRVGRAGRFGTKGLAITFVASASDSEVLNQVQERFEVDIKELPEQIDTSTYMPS

[2] = target: T2, Df31 (Decondensation Factor 31) (Drosophila, UniProt O16043 1-183); assay: MST; up to 411 uM protein; MST: 50 nM labelled oligonucleotide in EMSA buffer (composition cited, ref 44), 28 C, Hill fit; EMSA: 32P probe, PAGE, same cited protocol; salt and pH not given; conditions: protein: recombinant; label: fluorescent; blunt
T2 sequence: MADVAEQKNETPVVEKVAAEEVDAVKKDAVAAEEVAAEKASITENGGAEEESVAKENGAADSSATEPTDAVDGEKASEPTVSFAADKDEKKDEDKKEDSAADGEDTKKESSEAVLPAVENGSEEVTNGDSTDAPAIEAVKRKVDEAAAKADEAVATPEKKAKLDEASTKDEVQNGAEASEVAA

UAP56 [3] = target: T1, UAP56; assay: EMSA; 0.25-5 uM protein; single complex; MST: 50 nM labelled oligonucleotide in EMSA buffer (composition cited, ref 44), 28 C, Hill fit; EMSA: 32P probe, PAGE, same cited protocol; salt and pH not given; conditions: protein: recombinant; tags: 6xHis (pQE9); label: 32P; blunt
GST-UAP56 = target: T3, GST-UAP56 (Arabidopsis thaliana (Mouse-ear cress), UniProt Q9LFN6); assay: GST pull-down; ATP present
T3 chain: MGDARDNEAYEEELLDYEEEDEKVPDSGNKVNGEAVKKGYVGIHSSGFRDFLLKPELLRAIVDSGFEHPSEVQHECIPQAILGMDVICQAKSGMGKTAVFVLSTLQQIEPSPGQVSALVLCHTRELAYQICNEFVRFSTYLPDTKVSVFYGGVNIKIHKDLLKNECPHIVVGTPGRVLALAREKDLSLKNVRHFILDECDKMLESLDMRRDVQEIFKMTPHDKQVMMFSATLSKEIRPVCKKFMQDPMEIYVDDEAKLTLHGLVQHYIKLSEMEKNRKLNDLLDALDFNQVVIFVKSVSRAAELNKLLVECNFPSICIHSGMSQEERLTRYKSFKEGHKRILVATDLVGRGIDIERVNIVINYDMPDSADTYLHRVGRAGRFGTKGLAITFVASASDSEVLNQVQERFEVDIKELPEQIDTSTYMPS

UAP56 [4] = target: T1, UAP56; assay: EMSA; 0.25-5 uM protein; two complexes; less efficient than RNA; MST: 50 nM labelled oligonucleotide in EMSA buffer (composition cited, ref 44), 28 C, Hill fit; EMSA: 32P probe, PAGE, same cited protocol; salt and pH not given; conditions: protein: recombinant; tags: 6xHis (pQE9); label: 32P; blunt

Row | Binder | Kd (UAP56 [1]) | binding result (GST-UAP56) | also measured
1 | D29ds (dsDNA) DNA 1: CCTCCTTTTTTCTTTTTTTTTTTTTTTCT DNA 2: AGAAAAAAAAAAAAAAAGAAAAAAGGAGG | 6.5 ± 0.75 µM | – | binding result [2]: no binding
2 | R25ds (dsRNA) RNA 1: AAAACAAAAUAGCACCGUAAAGCAC RNA 2: GUGCUUUACGGUGCUAUUUUGUUUU | – | – | binding result (UAP56 [3]): binds
3 | 6xHis-MOS11 (protein) MATNGEKVTATVVNGGGLSTGENPKKIVDLNTTELDRTDDILDGEVKGFSDSGEKKEETDSNGIGSTAGVDSGDISPVDDIQKKIRRAERFGVSVKLTEEEKRNSRAERFGTVAAAVVNGSEGTKKAEELKRKARADRFGVPSATSTTDKTEEEAKKKARLARFGKETKVDSAEENKRKARALRFSKEASADASSDLPEKQIIGKEAAVSGSAA | – | binds | –
4 | 6xHis-HMGB2 (protein) MKGAKSKTETRSSKLSVTKKPAKGAGRGKAAAKDPNKPKRPASAFFVFMEDFRETFKKENPKNKSVATVGKAAGDKWKSLSDSEKAPYVAKAEKRKVEYEKNIKAYNKKLEEGPKEDEESDKSVSEVNDEDDAEDGSEEEEDDD | – | no binding | –
5 | R29ds (dsRNA) RNA 1: CCUCCUUUUUUCUUUUUUUUUUUUUUUCU RNA 2: AGAAAAAAAAAAAAAAAGAAAAAAGGAGG | 51.5 ± 5.3 µM | – | –
6 | D25ds (dsDNA) DNA 1: AAAACAAAATAGCACCGTAAAGCAC DNA 2: GTGCTTTACGGTGCTATTTTGTTTT | – | – | binding result (UAP56 [4]): binds
